Measured values: ChEMBL document CHEMBL2074286, “Active transport of the angiotensin-II antagonist losartan and its main metabolite EXP 3174 across MDCK-MDR1 and caco-2 cell monolayers” (Br J Pharmacol, 2000)

How the values were obtained:
[1] = system: CCCCc1nc(Cl)c(CO)n1Cc1ccc(-c2ccccc2-c2nn[nH]n2)cc1; experiment: TP_TRANSPORTER: transepithelial transport (basal to apical) in MDR1-expressing MDCK cells; assay type: functional, cell-based
[2] = system: CCCCc1nc(Cl)c(CO)n1Cc1ccc(-c2ccccc2-c2nn[nH]n2)cc1; experiment: TP_TRANSPORTER: transepithelial transport (basal to apical) in Caco-2 cells; assay type: functional, cell-based

Substance: ATP-dependent translocase ABCB1 (Homo sapiens)
- Km [1]: 403 µM
- Km [2]: 232 µM
